Patent US20250313626A1 (HARBOUR BIOMED SHANGHAI, published 2025)
Like-named read-outs stand apart in the source and are kept apart here. Values belong to the binder of their own block, whether it stands above or below them.

Experiments:
[1] = target: T1, human CD200R1 isoform a on CHOK1 cells (CHOK1/hCD200R1a) (human, UniProt Q8TD46 25-348); test: flow cytometry, Alexa Fluor 647-labelled antibody on CHOK1/hCD200R1a cells
T1 construct: also called CHOK1/CD200R1a
T1 sequence: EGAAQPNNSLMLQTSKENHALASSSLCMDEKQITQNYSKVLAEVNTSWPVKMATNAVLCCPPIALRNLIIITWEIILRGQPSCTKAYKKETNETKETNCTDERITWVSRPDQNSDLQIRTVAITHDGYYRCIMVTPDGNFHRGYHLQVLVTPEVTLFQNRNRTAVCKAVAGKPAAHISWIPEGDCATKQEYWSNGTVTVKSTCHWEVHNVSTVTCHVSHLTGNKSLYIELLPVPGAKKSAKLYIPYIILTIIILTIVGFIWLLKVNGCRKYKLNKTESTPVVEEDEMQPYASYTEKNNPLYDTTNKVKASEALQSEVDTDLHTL
Method: Briefly, CHOK1/hCD200R1a cells and CHOK1-cynoCD200R1a cells were digested, and collected, and then were resuspended in PBS containing 2% BSA, respectively. The cell density was adjusted to 1×10⁶ cells/mL. The cells were seeded in a 96-well V-bottom plate (Corning, #3894) at 100 μL/well, followed by the addition of test antibodies and reference antibodies in a series diluted concentration, each at 100 μL/well. The cells were incubated away from light at 4° C. for 1 h. Thereafter, the cells in each well were rinsed twice with 100 μL of pre-cooled PBS containing 2% BSA, and centrifuged at 500 g at 4° C. for 5 min, and then the supernatant was discarded. […] The cells in each well were rinsed twice with 100 μL of pre-cooled PBS containing 2% BSA, and centrifuged at 500 g at 4° C. for 5 min, and then the supernatant was discarded. Finally, the cells in each well were resuspended in 200 μL of pre-cooled PBS containing 2% BSA, and the fluorescence signal values were read using a BD CantoII flow cytometer.
The cell density was adjusted to 1×10⁶ cells/mL.

[2] = target: T2, CD200 (human CD200 on CHOK1/hCD200 cells); test: cell-based or functional assay
T2 single chain: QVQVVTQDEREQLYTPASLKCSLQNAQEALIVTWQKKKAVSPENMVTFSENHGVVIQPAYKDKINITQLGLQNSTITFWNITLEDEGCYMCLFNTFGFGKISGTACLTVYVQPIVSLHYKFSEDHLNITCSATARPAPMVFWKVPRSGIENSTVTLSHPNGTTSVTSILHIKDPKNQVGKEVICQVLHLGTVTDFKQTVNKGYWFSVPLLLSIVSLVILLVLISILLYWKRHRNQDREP

[3] = target: T2, CD200 (human CD200 on CHOK1/hCD200 …); test: cell-based or functional assay
[4] = target: T2, CD200 (human CD200 on CHOK1/hCD200 …); test: cell-based or functional assay
[5] = target: T2, CD200 (human CD200 on CHOK1/hCD200 …); test: cell-based or functional assay
[6] = target: T2, CD200 (human CD200 on CHOK1/hCD200 …); test: cell-based or functional assay
[7] = target: T1, human CD200R1 isoform a on CHOK1 cells …; test: flow cytometry on CHOK1/hCD200R1a cells
Method: (§1) This example is intended to investigate the in vitro binding activity of human anti-CD200R1 monoclonal antibodies to human/Cynomolgus macaques CD200R1a expressed on the surface of cells. The anti-CD200R1 antibodies were produced as described in Example 3.4 and the binding experiments at the cell level were performed using CHOK1/hCD200R1a and CHOK1-cynoCD200R1a.
(§2) Briefly, CHOK1/hCD200R1a cells and CHOK1-cynoCD200R1a cells were digested, and collected, and then were resuspended in PBS containing 2% BSA, respectively. The cell density was adjusted to 1×10⁶ cells/mL. The cells were seeded in a 96-well V-bottom plate (Corning, #3894) at 100 μL/well, followed by the addition of test antibodies and reference antibodies in a series diluted concentration, each at 100 μL/well. The cells were incubated away from light at 4° C. for 1 h. Thereafter, the cells in each well were rinsed twice with 100 μL of pre-cooled PBS containing 2% BSA, and centrifuged at 500 g at 4° C. for 5 min, and then the supernatant was discarded. […] Finally, the cells in each well were resuspended in 200 μL of pre-cooled PBS containing 2% BSA, and the fluorescence signal values were read using a BD CantoII flow cytometer.

[8] = target: T3, Cynomolgus macaques CD200R1 isoform a on CHOK1 cells (CHOK1/cynoCD200R1a) (Cynomolgus macaques); test: flow cytometry on CHOK1/cynoCD200R1a cells
T3 chain: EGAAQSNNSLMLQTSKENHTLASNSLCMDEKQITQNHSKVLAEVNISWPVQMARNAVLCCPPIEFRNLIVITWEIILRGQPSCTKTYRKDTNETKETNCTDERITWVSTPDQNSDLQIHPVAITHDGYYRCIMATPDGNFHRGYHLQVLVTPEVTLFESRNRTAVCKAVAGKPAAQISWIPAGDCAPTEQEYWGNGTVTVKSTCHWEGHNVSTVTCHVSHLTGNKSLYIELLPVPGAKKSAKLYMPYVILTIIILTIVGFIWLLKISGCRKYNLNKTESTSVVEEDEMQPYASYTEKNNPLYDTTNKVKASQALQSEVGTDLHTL
Method: as §1, §2

B1: PR200691 (antibody, human IgG4 S228P, kappa, F234A L235A, V domains shown)
VH: QVQLVESGGGVVQPGRSLRLSCAASGFTFSRYGMHWVRQAPGKGLEWVAVIPYDGSNKYYADSVKGRFTISRDISKNTLYLQMNSLRAEDTAVYYCARRGYYDSSGYYYFYYGMDVWGQGTTVTVSS
VL: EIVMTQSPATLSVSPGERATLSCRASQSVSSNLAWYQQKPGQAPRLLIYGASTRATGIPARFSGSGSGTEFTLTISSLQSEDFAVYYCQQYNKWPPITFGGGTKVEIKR
binding result [1]: binds

IC50 of the inhibition of CD200-induced PathHunter Jurkat CD200R1a luminescence (CHOK1/hCD200 cells as CD200 source) [2]: 3.4 nM
IC50 of the inhibition of CD200-induced PathHunter Jurkat CD200R1a luminescence (CHOK1/hCD200 cells as CD200 source) [3]: 4.01 nM
IC50 of the inhibition of CD200-induced PathHunter Jurkat CD200R1a luminescence (CHOK1/hCD200 cells as CD200 source) [4]: 2.4 nM
IC50 of the inhibition of CD200-induced PathHunter Jurkat CD200R1a luminescence (CHOK1/hCD200 cells as CD200 source); head without unit, x axis Log [Ab] (nM) [5]: 4.18 nM
IC50 of the inhibition of CD200-induced PathHunter Jurkat CD200R1a luminescence (CHOK1/hCD200 cells as CD200 source); head without unit, x axis Log [Ab] (nM) [6]: 11.9 nM
B2: PR002903 (antibody, human IgG2, kappa, V domains shown)
VH: QVQLQQSGSELKKPGASVKISCKASGYSFTDYIILWVRQNPGKGLEWIGHIDPYYGSSNYNLKFKGRVTITADQSTTTAYMELSSLRSEDTAVYYCGRSKRDYFDYWGQGTTLTVSS
VL: DIQMTQSPSSLSASIGDRVTITCKASQDINSYLSWFQQKPGKAPKLLIYRANRLVDGVPSRFSGSGSGTDYTLTISSLQPEDFAVYYCLQYDEFPYTFGGGTKLEIKR

B3: PR200526 (antibody, human IgG1, lambda, V domains shown)
VH: QVQLVQSGAEVKKPGQSLRISCKGAGYSFSTYWIGWVRQMPGKGLEWMGIIYPDDSDTRYSPSFEGQVTISVDKSITTAYLHWSSLKASDTAIYYCARLVGGAPAYWGQGTLVTVSS
VL: QSALTQPASVSGSPGQSITISCSGSSSDIGRYDYVSWYQHYPDKAPKLIIYEVKHRPSGISHRFSASKSGNTASLTISELQPGDEADYYCASYTESKTYIFGGGTKVTVLG
notes: also called IgG1; hIgG1
binding result [7]: no binding (tested: log 2.5 nM (about 300 nM))
binding result [8]: no binding (tested: log 2.5 nM (about 300 nM))
